Data on nine molecules can be found in patent US20260062488A1 (AbbVie / Abbott, published 2026).

Substitutions are numbered along the chain they refer to.

Test [1] addresses T1, cynomolgus α4β7 integrin (cynomolgus monkey).
T1 construct: whole, on cells; On CHOK1-cα4β7 cells or cynomolgus blood lymphocytes; also called cα4β7; cyno α4β7
Briefly: blockade of CHOK1-cα4β7 cell adhesion to MAdCAM-1.

Test [2] concerns the target T2, human α4β7 integrin (human, UniProt P13612 34-1032; P26010 20-798).
T2 construct: also called hα4β7; a4b7
Briefly: blockade of HuT78 cell adhesion to MAdCAM-1.

Test [3] deals with T2, human α4β7 integrin. Briefly: blockade of HuT78 cell adhesion to plate-bound MAdCAM-1, representative experiment; the two IC50 lines under the plot bear no name: the lower one is given to Ab-m1, whose curve lies left of Ab-Vedo's (midpoint near log -2.1 ug/ml).
Test [4] deals with T2, human α4β7 integrin. Put plainly: FACS binding, human CD4+CD45RO+ T cells, summary table.
The target of test [5] is T1, cynomolgus α4β7 integrin. Put plainly: blockade of CHOK1-cα4β7 cell adhesion to MAdCAM-1. This is another data set of the same source.
Test [6] deals with T2, human α4β7 integrin. Put plainly: row IC50 (pM) HuT78 of the binning table (assay not explained, presumably adhesion to MAdCAM-1).
The target of test [7] is T2, human α4β7 integrin. Put plainly: blockade of HuT78 cell adhesion to MAdCAM-1. This is another data set of the same source.
The target of test [8] is T1, cynomolgus α4β7 integrin. Briefly: blockade of CHOK1-cα4β7 cell adhesion to MAdCAM-1, representative experiment; the two IC50 lines under the plot bear no name: the lower one is given to Ab-m1, whose curve lies clearly left of Ab-Vedo's (midpoint near log -1.6 ug/ml).
For test [9], the target named is T2, human α4β7 integrin. Briefly: inhibition of MAdCAM-1 binding to human CD4+CD45RO+ T cells.
Test [10] concerns the target T2, human α4β7 integrin. Put plainly: FACS titration on BaF3-hα4β7.
Test [11] addresses T2, human α4β7 integrin. Briefly: FACS, primary human CD4+ memory T cells.
Test [12] concerns the target T2, human α4β7 integrin. Briefly: MadCAM-1/HuT78 potency (adhesion blockade), summary table.
Test [13] has as its target T1, cynomolgus α4β7 integrin. Briefly: MadCAM-1/cα4β7 potency (adhesion blockade), summary table.
The target in test [14] is T1, cynomolgus α4β7 integrin. Briefly: ratio of cyno to human adhesion-blockade potency, summary table.
The target of test [15] is T2, human α4β7 integrin. Put plainly: FACS, primary human CD4+ memory T cells (CD4+CD45RO+), one whole blood.
Test [16] concerns the target T2, human α4β7 integrin. Briefly: blockade of MAdCAM-1 mediated HuT78 cell adhesion.
The target of test [17] is T1, cynomolgus α4β7 integrin. Briefly: blockade of CHOK1/cα4β7 adhesion to MAdCAM-1.
In test [18] the target is T2, human α4β7 integrin. Put plainly: FACS on α4β7-expressing HuT78 cells.

B1: Ab-m1 (antibody, V domains shown)
VH: EVQLQQSVAELVRPGASVKLSCTTSGFNIKNTYMHWVKQRPKQGLEWIGRIDPANGHTEYAPKFQGKATITADTSSNTAYLHLSSLTSDDTAIYYCYYVDSWGQGTTLTVSS
VL: DILMTQSPSSMSVSLGDTVSITCHASQGISDNIGWLQQRPGKSFKGLIYHGTNLEDGVPSRFSGSGSGADYSLTISSLESEDFADYYCVQYAQFPWTFGGGTTLEIK
notes: Hybridoma antibody, mouse IgG1/kappa; also called murine antibody Ab-m1; Mouse anti-human α4β7 [mu IgG1/k
With B1, the IC50 in the test with cynomolgus α4β7 integrin [1] was 0.0658 nM; with human α4β7 integrin [2], 0.0555 nM; in the test with human α4β7 integrin [3], 0.0511 nM; with cynomolgus α4β7 integrin [5] it was 0.201 nM; with human α4β7 integrin [6], 0.0447 nM; with human α4β7 integrin [7], 0.0228 nM. Further, the IC50 with cynomolgus α4β7 integrin [8] is 0.165 nM; with human α4β7 integrin [9], 0.0637 nM; in the test with human α4β7 integrin [12], 0.0555 nM; with cynomolgus α4β7 integrin [13], 0.201 nM. Further, the EC50 in the test with human α4β7 integrin [4] amounted to 0.0098 nM; in the test with human α4β7 integrin [10] it was 0.474 nM; with human α4β7 integrin [11], 0.0098 nM. In addition, the Cyno x-reactivity with cynomolgus α4β7 integrin [14] came out at 4 fold.

B2: Ab-c1 (antibody, human IgG1, V domains shown)
VH: B1 VH
VL: B1 VL
notes: Ab-m1's variable regions with human IgG1/k constant regions; also called murine-human chimera Ab-c1; Chimeric anti-human α4β7 [hu IgG1/k
With B2, the IC50 worked out at 0.0864 nM in the test with cynomolgus α4β7 integrin [1] and 0.0137 nM with human α4β7 integrin [7]. The molecule further displayed an EC50 with human α4β7 integrin [15] of 0.0039 nM.

B3: Ab-h1.5 (antibody, human IgG1, V domains shown)
VH: EVQLVQSGAEVKKPGSSVKVSCTTSGFNIKNTYMHWVKQRPGQGLEWIGRIDPANGHTEYAPKFQGKATITADESTNTAYLELSSLRSEDTAVYYCYYVDSWGQGTTVTVSS
VL: DIQMTQSPSSLSASVGDRVTITCHASQGISDNIGWLQQKPGKSFKGLIYHGTNLEDGVPSRFSGSGSGADYTLTISSLQPEDFATYYCVQYAQFPWTFGGGTKVEIKR
B3 returned an IC50 with human α4β7 integrin [16] of 0.0091 nM.

B4: Ab-h1.9 (antibody, human IgG1, V domains shown)
VH: B3 VH with T23K, T24A, K38R, R40A, K67R, A68V, L81M
VL: DIQMTQSPSSLSASVGDRVTITCHASQGISDNIGWLQQKPGKSFKLLIYHGTNLEDGVPSRFSGSGSGTDYTLTISSLQPEDFATYYCVQYAQFPWTFGGGTKVEIK
notes: Humanized, human IgG1 and kappa constant regions; also called Ab-H1.9 (parental)
In the case of B4, the 50% inhibitory concentration (IC50) with cynomolgus α4β7 integrin [17] was found to be 0.0365 nM; with human α4β7 integrin [16] it was 0.0114 nM.

B5: Ab-h1.9b (antibody, V domains shown)
VH: B3 VH with T23K, T24A, K38R, R40A, N55R, Q65S, K67R, A68V, L81M, S101Q
VL: B4 VL with G28D
notes: Liability-engineered clone converted to IgG format [hu IgG1/k]; constant regions of the tested mAb not specified
As to B5, the binding result in the test with human α4β7 integrin [18] is recorded as “binds”.

B6: Ab-h1.9e (antibody, V domains shown)
VH: B3 VH with T23K, T24A, K38R, R40A, N55G, Q65I, K67R, A68V, L81M, D100A
VL: B4 VL with G28E
notes: as for B5
With B6, the binding result with human α4β7 integrin [18] was “binds”.

B7: Ab-h1.6 (antibody, human IgG1, V domains shown)
VH: B3 VH
VL: B4 VL
Molecule B7 returned a 50% inhibitory concentration (IC50) in the test with human α4β7 integrin [16] of 0.0081 nM.

B8: Ab-h1.8 (antibody, human IgG1, V domains shown)
VH: B3 VH with T23K, T24A, K38R, R40A, K67R, A68V, L81M
VL: B3 VL
Molecule B8 came in with an IC50 with human α4β7 integrin [16] of 0.0138 nM.

B9: Ab-h1.9a (antibody, V domains shown)
VH: B3 VH with T23K, T24A, K38R, R40A, G56K, Q65L, K67R, A68V, L81M, D100A
VL: B4 VL with G28E
notes: as for B5
For the molecule B9, the binding result in the test with human α4β7 integrin [18] is reported as “binds”.
